Consider 1 molecule from patent US9872921B2, “DE-N-acetyl sialic acid antigens, antibodies thereto, and methods of use in cancer therapy” (priority 2004, dated 2018).

In one experiment the test system is human melanomas. The experiment is described as follows: Immunostaining of frozen sections of human melanomas. The following applies: frozen unfixed sections, 400× magnification. Here is the method:
To determine whether there is a difference in expression of SEAM 3-reactive antigen between normal melanocytes and melanoma tumor cells, immuno-staining of thin sections of each type of tissue were performed. In addition to SEAM 3, controls included the secondary antibody alone and R24, which binds to the ganglioside GD3 that is expressed in normal melanocytes and is overexpressed in some melanomas (Dippold et al. Proc Natl Acad Sci USA, 1980. 77(10): 6114-8.; Graus, et al., Brain Res, 1984. 324(1): 190-4; Houghton et al. Proc Natl Acad Sci USA, 1985. 82(4):1242-6; Panneerselvam et al. J Immunol, 1986. 136(7): 2534-41; Real et al. Cancer Res, 1985. 45(9): 4401-11; Vadhan-Raj et al. J Clin Oncol, 1988. 6(10): 1636-48; Welt t al. Clin Immunol Immunopathol, 1987. 45(2): 214-29).
The tissue sections were made from frozen samples of normal skin (HuSkinTb111 in FIG. 39) and two human melanomas (HuMel1151 and HuMel4034). To prevent the possibility of blocking de-N-acetyl antigen or extracting a lipid containing the antigen, the sections were prepared from frozen tissue and were dried onto the slides but not fixed with aldehydes or organic solvents (Chammas et al. Cancer Res, 1999. 59(6): 1337-46). […] Bound antibody was then detected using the DAKO LSAB kit following the manufacturer's directions (Thermo Fisher Scientific, Waltham, Mass.). […]

A further experiment deals with normal tissues. In words: Immunohistochemistry on micro array of normal tissues. More on the design: species or system human. The following applies: 17 samples. On the procedure: Human tissue microarrays were obtained from US BioMax (Rockville, Md.). The tissue microarrays were deparaffinized in xylene (2 changes, 10 minutes each) then rehydrated by sequential 5 minute washes in 100% ethanol, 95% ethanol, 70% ethanol, 50% ethanol, and PBS buffer. Endogenous peroxidase was blocked by incubation with Peroxidazed 1 solution (Biocare, Concord, Calif.) for 5 minutes at ambient temperature. The sections were blocked with Terminator (Biocare) containing streptavidin then rinsed with PBS buffer. The primary antibody (purified SEAM 3 (vide infra), irrelevant IgG2b control, etc. at concentrations of 1 to 5 μg/ml)) was diluted in Da Vinci Green dilution buffer (Biocare) and incubated either overnight at 4 degrees C. or for 1 hour at ambient temperature. The slides were washed 3 times for 10 minutes each with PBS buffer then incubated with biotin conjugated rabbit anti-mouse IgG secondary antibody (5 μg/ml, Vector Labs, Burlingame, Calif.) for 30 minutes at ambient temperature. After washing 3 times for 10 minutes each with PBS buffer, horse radish peroxidase-streptavidin conjugate (Vector Labs) was added and incubated at ambient temperature for 30 minutes. The slides were washed 3 times for 10 minutes each with PBS buffer and incubated with AEC substrate (Vector Labs) containing hydrogen peroxide for color development. […]

B1: SEAM 3: murine anti-N-Pr NmB polysaccharide monoclonal antibody (IgG2b), ATCC Deposit No. HB-12170 (antibody, V domains shown)
VH: EVKLQESGGGLVQPGDSLSLSCAASGFTFTPYYMGWVRQPPGKALEWLGYIRNKANGYTTEYSASVKGRFTISRDNSQSILYLQMNALRAEDSATYYCARYARGTVDSWGQGTTLTVS
VL: DIVMTQSPLTLSVTIGQPASISCKSSQSLLHSNGKTYLNWLLQRPGQSPKLLIYLVSKLESGVPDRFSGSGSGTDFTLKISRVEAEDLGLYYCLQIIHFPHTFGAGTKLELKRA
modifications: mouse
For the molecule B1, in the experiment on human melanomas, the “immunostaining of two human melanomas” value is recorded as “staining is weaker but nearly all of the melanoma cells are stained”. Also, in the experiment on normal tissues, the “normal tissue samples positive for binding” value is reported as 15 of 17 and the “staining grade in positive normal tissue samples” value is recorded as “+ to ++”.
